Article PMC5431903, “Genomic RNA folding mediates assembly of human parechovirus” (Nature Communications, 2017)

Biological target: the molecule itself
Assay: not stated; purified HPeV1 virions heated to 56 °C for 30 min, then 4 °C for 10 days (1x selection buffer: 10 mM Tris-HCl pH 7.7, 150 mM NaCl, 1 mM MgCl2); whole capsids removed by centrifugation; how the pentamers were shown is in Supplementary Fig. 1

B1: HPeV1 (Harris strain) capsid protein protomer of VP0, VP1 and VP3 (complex)
chain 1: METIKSIADMATGVVSSVDSTINAVNEKVESVGNEIGGNLLTKVADDASNILGPNCFATTAEPENKNVVQATTTVNTTNLTQHPSAPTMPFSPDFSNVDNFHSMAYDITTGDKNPSKLVRLETHEWTPSWARGYQITHVELPKVFWDHQDKPAYGQSRYFAAVRCGFHFQVQVNVNQGTAGSALVVYEPKPVVTYDSKLEFGAFTNLPHVLMNLAETTQADLCIPYVADTNYVKTDSSDLGQLKVYVWTPLSIPTGSANQVDVTILGSLLQLDFQNPRVFAQDVNIYDN
chain 2: NSWGSQMDLTDPLCIEDDTENCKQTMSPNELGLTSAQDDGPLGQEKPNYFLNFRSMNVDIFTVSHTKVDNLFGRAWFFMEHTFTNEGQWRVPLEFPKQGHGSLSLLFAYFTGELNIHVLFLSERGFLRVAHTYDTSNDRVNFLSSNGVITVPAGEQMTLSAPYYSNKPLRTVRDNNSLGYLMCKPFLTGTSTGKIEVYLSLRCPNFFFPLPAPKVTSSRALRGDMANLTNQ
chain 3: APNGKKKNWKKIMTMSTKYKWTRTKIDIAEGPGSMNMANVLCTTGAQSVALVGERAFYDPRTAGSKSRFDDLVKIAQLFSVMADSTTPSENHGVDAKGYFKWSATTAPQSIVHRNIVYLRLFPNLNVFVNSYSYFRGSLVLRLSVYASTFNRGRLRMGFFPNATTDSTSTLDNAIYTICDIGSDNSFEITIPYSFSTWMRKTNGHPIGLFQIEVLNRLTYNSSSPSEVYCIVQGKMGQDARFFCPTGSVVTFQ
notes: capsid protein VP0 of human parechovirus 1, Harris strain; cut product of the viral polyprotein, not cleaved into VP2 and VP4; capsid protein VP1 of human parechovirus 1, Harris strain; cut product of the viral polyprotein; capsid protein VP3 of human parechovirus 1, Harris strain; One protomer holds one copy each of VP0, VP1 and VP3; five protomers form the pentameric capsomer, and the capsid is …
  stoichiometry N: 5
